Source: US20200299400A1

Target: human GITR on activated CD4 T cells (human) (UniProt Q9Y5U5)
Assay: FACS binding to activated human CD4 T cells

Sequence of human GITR on activated CD4 T cells (human) (Q9Y5U5 26-241): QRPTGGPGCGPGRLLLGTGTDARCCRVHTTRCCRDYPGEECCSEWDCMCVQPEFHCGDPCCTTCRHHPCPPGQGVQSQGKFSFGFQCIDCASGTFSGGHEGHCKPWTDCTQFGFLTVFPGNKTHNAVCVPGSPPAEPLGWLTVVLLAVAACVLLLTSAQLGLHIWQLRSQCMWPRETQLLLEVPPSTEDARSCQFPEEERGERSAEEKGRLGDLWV

EC50 [nM]	Substance
132	unrelated hIgG1
6.72	unrelated hIgG2
